The source of these data is paper PMC10320395, “Molecular insights into LINC complex architecture through the crystal structure of a luminal trimeric coiled-coil domain of SUN1” (Frontiers in Cell and Developmental Biology, 2023).

Where “and” joins values, the source holds several entries; their conditions need not be identical. Equal entries are not always repeated. Where no end group is shown, it is not given here.

Data set [1] concerns the molecule itself. The data set is described as follows: SEC-MALS; cleaved SUN1 constructs at > 5 mg/mL; Superdex 200 Increase 10/300 GL, 20 mM HEPES pH 7.5, 150 mM KCl, 2 mM DTT.
Data set [2] deals with the molecule itself. Put plainly: crystal structure; SUN1 362–401 at 3.5 mg/mL, sitting drops, 20°C; spacegroup P2(1), a SUN1 trimer in the asymmetric unit; 2.07 Å.
Data set [3] deals with the molecule itself. The data set is described as follows: SEC-MALS; MBP-SUN1 α1 at 20 mg/mL and 1 mg/mL after purification, and at 20 mg/mL after over-night incubation with 2 mM zinc acetate (trimer stabilised); Superdex 200 Increase 10/300 GL, 20 mM HEPES pH 7.5, 150 mM KCl, 2 mM DTT; trimer to dimers to monomers.

B1: SUN1 α1-α2-SUN (entire structured luminal domain of human SUN1, amino-acids 362–785) (domain or fragment, UniProt O94901 362-785, looked up)
chain: MSGVEQQVASLSGQCHHHGENLRELTTLLQKLQARVDQMEGGAAGPSASVRDAVGQPPRETDFMAFHQEHEVRMSHLEDILGKLREKSEAIQKELEQTKQKTISAVGEQLLPTVEHLQLELDQLKSELSSWRHVKTGCETVDAVQERVDVQVREMVKLLFSEDQQGGSLEQLLQRFSSQFVSKGDLQTMLRDLQLQILRNVTHHVSVTKQLPTSEAVVSAVSEAGASGITEAQARAIVNSALKLYSQDKTGMVDFALESGGGSILSTRCSETYETKTALMSLFGIPLWYFSQSPRVVIQPDIYPGNCWAFKGSQGYLVVRLSMMIHPAAFTLEHIPKTLSPTGNISSAPKDFAVYGLENEYQEEGQLLGQFTYDQDGESLQMFQALKRPDDTAFQIVELRIFSNWGHPEYTCLYRFRVHGEPVK
notes: human SUN1, Uniprot O94901, amino-acids 362–785 (α1, α2 and the C-terminal SUN domain); Theoretical trimer 142 kDa; source: E. coli BL21 (DE3), purified (Ni-NTA, amylose, ion exchange, TEV cleavage, ion exchange, SEC); not shown: His, N-terminal, cleaved; MBP, N-terminal, cleaved
In the case of B1, in data set [1], the “stoichiometry N” value was determined as 3.

B2: SUN1 α2 (second luminal coiled-coil domain of human SUN1, amino-acids 421–584) (domain or fragment, UniProt O94901 421-584, looked up)
chain: ETDFMAFHQEHEVRMSHLEDILGKLREKSEAIQKELEQTKQKTISAVGEQLLPTVEHLQLELDQLKSELSSWRHVKTGCETVDAVQERVDVQVREMVKLLFSEDQQGGSLEQLLQRFSSQFVSKGDLQTMLRDLQLQILRNVTHHVSVTKQLPTSEAVVSAVSE
notes: human SUN1, Uniprot O94901, amino-acids 421–584 (α2 coiled-coil domain); Theoretical monomer 19 kDa, so the cleaved protein stood in SEC-MALS; source: E. coli BL21 (DE3), purified (Ni-NTA, amylose, ion exchange, TEV cleavage, ion exchange, SEC); not shown: His, N-terminal, cleaved; MBP, N-terminal, cleaved
As for B2, in data set [1], the “stoichiometry N” value is 3 and 2.

B3: SUN1 α1-α2 (human SUN1 amino-acids 362–584) (domain or fragment, UniProt O94901 362-584, looked up)
chain: MSGVEQQVASLSGQCHHHGENLRELTTLLQKLQARVDQMEGGAAGPSASVRDAVGQPPRETDFMAFHQEHEVRMSHLEDILGKLREKSEAIQKELEQTKQKTISAVGEQLLPTVEHLQLELDQLKSELSSWRHVKTGCETVDAVQERVDVQVREMVKLLFSEDQQGGSLEQLLQRFSSQFVSKGDLQTMLRDLQLQILRNVTHHVSVTKQLPTSEAVVSAVSE
notes: human SUN1, Uniprot O94901, amino-acids 362–584 (α1 and α2 coiled-coils joined by their natural linker); Theoretical trimer 75 kDa; source: E. coli BL21 (DE3), purified (Ni-NTA, amylose, ion exchange, TEV cleavage, ion exchange, SEC); not shown: His, N-terminal, cleaved; MBP, N-terminal, cleaved
On to B3, for which, in data set [1], the “stoichiometry N” value was determined as 3.

B4: SUN1 α1 (luminal coiled-coil domain of human SUN1, amino-acids 362–401) (domain or fragment, UniProt O94901 362-401, looked up)
chain: MSGVEQQVASLSGQCHHHGENLRELTTLLQKLQARVDQME
modifications: also: C376 partly oxidised to S-hydroperoxycysteine in crystal chain B, occupancy 0.62
notes: human SUN1, Uniprot O94901, amino-acids 362–401 (α1 coiled-coil domain of the luminal region); Expressed from pMAT11 as a TEV-cleavable His-MBP fusion; tags removed with TEV protease; About one zinc ion per trimer was found in solution; the crystal lacked zinc; also called SUN1 362–401; source: E. coli BL21 (DE3), purified (Ni-NTA, amylose, ion exchange, TEV cleavage, ion exchange, SEC); not …
Consider B4, for which the binding result in data set [2] was “binds”.

B5: MBP-SUN1 α1 (MBP fusion of human SUN1 amino-acids 362–401) (domain or fragment, UniProt O94901 362-401, looked up)
chain: B4 chain
notes: human SUN1, Uniprot O94901, amino-acids 362–401 (α1 coiled-coil domain); The uncleaved His-MBP fusion from pMAT11, used to give greater molecular mass resolution in SEC-MALS; theoretical monomer 49 kDa; The His tag probably stays with the MBP (surmise); source: E. coli BL21 (DE3), purified (Ni-NTA, amylose, ion exchange); not shown: MBP, N-terminal, kept
Take B5: in data set [3], the “stoichiometry N” value was 3 and 2.
